# Test results as given in US20260167718A1 (Merck Sharp & Dohme, published 2026).
# Where a chain is given by its changes, count along the chain named. In names and notes the source's numbering stands.
# T1: rhesus ILT3-His tagged recombinant protein (rhesus monkey (Macaca mulatta))
# T1 construct: also called ILT3_MM; not shown: His tag
# T1 chain: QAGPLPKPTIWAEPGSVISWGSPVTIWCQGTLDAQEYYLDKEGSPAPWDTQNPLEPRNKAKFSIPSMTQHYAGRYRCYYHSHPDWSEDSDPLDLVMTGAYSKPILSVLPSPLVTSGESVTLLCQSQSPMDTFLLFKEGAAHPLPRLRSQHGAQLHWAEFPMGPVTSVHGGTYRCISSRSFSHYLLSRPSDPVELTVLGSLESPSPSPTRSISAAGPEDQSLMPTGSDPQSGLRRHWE
# B1: Mouse anti-ILT3 mAb 52B8 IgG2a/Kappa (antibody)
# heavy: EVQLVESGGDLVKPGGSLKLSCAASGFTFSNYGMSWVRQTPDRRLEWVATISGGGDYTNYPDSMRGRFTISRDNAKNTLYLQMSSLKSEDTAMYYCGRRLWFRSLYYAMDYWGQGTSVTVSSAKTTAPSVYPLAPVCGDTTGSSVTLGCLVKGYFPEPVTLTWNSGSLSSGVHTFPAVLQSDLYTLSSSVTVTSSTWPSQSITCNVAHPASSTKVDKKIEPRGPTIKPCPPCKCPAPNLLGGPSVFIFPPKIKDVLMISLSPIVTCVVVDVSEDDPDVQISWFVNNVEVHTAQTQTHREDYNSTLRVVSALPIQHQDWMSGKEFKCKVNNKDLPAPIERTISKPKGSVRAPQVYVLPPPEEEMTKKQVTLTCMVTDFMPEDIYVEWTNNGKTELNYKNTEPVLDSDGSYFMYSKLRVEKKNWVERNSYSCSVVHEGLHNHHTTKSFSRTPGK
# light: NIVLTQSPASLAVSLGQRATISCRASEKVDSFGNSFMHWYQQKPGQPPKLLIYLTSNLDSGVPARFSGSGSRTDFALTIDPVEADDAATYYCQQNNEDPYTFGGGTKLEIKRADAAPTVSIFPPSSEQLTSGGASVVCFLNNFYPKDINVKWKIDGSERQNGVLNSWTDQDSKDSTYSMSSTLTLTKDEYERHNSYTCEATHKTSTSPIVKSFNRNEC
# notes: also called p52B8; LB181.52B8.1B1
# B2: Rat anti-ILT3 mAb 24A4 IgG2a/Kappa (antibody, V domains shown)
# VH: QVQLKESGPGLVQASETLSLTCTVSGFSLTSYCVNWVRQPSGKGPEWLGRFWYDEGKVYNLTLESRLSISGDTSKNQVFLKMNRLRTDDTGTYYCTRDRDTLGITGWFAYWGQGTLVTVSS
# VL: ETVMTQSPTSLSASIGERVTLNCKASQSVGINVDWYQQTPGQSPKLLIYGSANRHTGVPDRFTGSGFGSGFTLTISNVEPEDLGVYYCLQYGSVPYTFGPGTKLELK
# notes: Rat IgG2a/Kappa; also called p24A4; LB184.24A4.1A1
# B3: Rat anti-ILT3 mAb 20E4 IgG2a/Kappa (antibody, V domains shown)
# VH: QVQLKESGPGLVQASETLSLTCTVSGFSLTSYSVNWVRQPSGKGLEWMGRFWYDGGTAYNSTLESRLSISGDTSKNQVFLKMNSLQTDDTGTYYCTRDRDTMGITGWFAYWGQGTLVTVSP
# VL: B2 VL with I31V, G70D, P100A
# notes: Rat IgG2a/Kappa; also called p20E4; LB184.20E4.1E1.1D1
# B4: Rat anti-ILT3 mAb 16B1 IgG2a/Kappa (antibody, V domains shown)
# VH: B2 VH with S31N, Y53F, V58A, K81R, R84S, T87A, L102V
# VL: B2 VL with G70D
# notes: Rat IgG2a/Kappa; also called p16B1; LB184.16B1.1D2
# B5: Rat anti-ILT3 mAb 37C8 IgG2a/Kappa (antibody, V domains shown)
# VH: B2 VH with L102M
# VL: B2 VL
# notes: Rat IgG2a/Kappa; also called p37C8; LB184.37C8.1A3.1B1
# B6: Mouse anti-ILT3 mAb 1G12 IgG2a/Kappa (antibody, V domains shown)
# VH: QVQMQQSGTELMKPGASMKISCKATGYTFSTYWIQWIKQRPGHGLEWIGEILPGSGTTNYNENFKGKATFSADTSSNTAYIHLSSLTSEDSAVFYCARRLGRGPFDYWGQGTTLTVSS
# VL: DIQMTQSPSSLSASLGGKVTITCEASQDINKHIDWYQHQPGRGPSLLIHYASILQPGIPSRFSGSGSGRDYSFSITSLEPEDIATYYCLQYDNLLPTFGGGTKLEIK
# notes: Mouse IgG2a/Kappa; also called p1G12; LB182.1G12.1B1
# B7: Rat anti-ILT3 mAb 17H12 IgG1/Kappa (antibody, V domains shown)
# VH: EVQLVESGGGLVQPGRSMKLSCAASGFTFSNFDMAWVRQAPTRGLEWVSSITYDGGSTSYRDSVKGRFTISRDNAKGTLYLQMDSLRSEDTATYYCTTVESIATISTYFDYWGQGVMVTVSS
# VL: DIVLTQSPALAVSLGQRATISCRASQSVSMSRYDLIHWYQQKPGQQPKLLIFRASDLASGIPARFSGSGSGTDFTLTINPVQADDIATYYCQQTRKSPPTFGGGTRLELK
# notes: Rat IgG1/Kappa; also called p17H12; LB190.17H121A1
# B8: Chimeric anti-ILT3 52B8 mouse VH/human IgG4 (S228P):mouse VL/human Kappa (antibody)
# heavy: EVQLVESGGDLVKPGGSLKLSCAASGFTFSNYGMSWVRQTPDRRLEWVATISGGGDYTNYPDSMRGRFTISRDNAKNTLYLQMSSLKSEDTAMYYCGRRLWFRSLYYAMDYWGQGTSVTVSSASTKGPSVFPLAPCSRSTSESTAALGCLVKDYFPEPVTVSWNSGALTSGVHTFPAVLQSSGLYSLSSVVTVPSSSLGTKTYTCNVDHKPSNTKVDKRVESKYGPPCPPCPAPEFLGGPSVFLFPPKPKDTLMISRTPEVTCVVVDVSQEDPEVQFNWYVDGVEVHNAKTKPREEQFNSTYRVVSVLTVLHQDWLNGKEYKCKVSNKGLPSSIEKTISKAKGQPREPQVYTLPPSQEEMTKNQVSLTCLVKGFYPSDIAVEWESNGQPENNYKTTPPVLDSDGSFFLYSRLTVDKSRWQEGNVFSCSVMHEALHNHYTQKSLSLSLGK
# light: NIVLTQSPASLAVSLGQRATISCRASEKVDSFGNSFMHWYQQKPGQPPKLLIYLTSNLDSGVPARFSGSGSRTDFALTIDPVEADDAATYYCQQNNEDPYTFGGGTKLEIKRTVAAPSVFIFPPSDEQLKSGTASVVCLLNNFYPREAKVQWKVDNALQSGNSQESVTEQDSKDSTYSLSSTLTLSKADYEKHKVYACEVTHQGLSSPVTKSFNRGEC
# notes: also called mAb 73; c52B8
# B9: humanized anti-ILT3 monoclonal antibody 9B11 (antibody, V domains shown)
# VH: EVQLVESGGGLVKPGGSLRLSCAASGFAFSSYDMSWVRQAPGKGLEWVSTISSSGSYTYYPDSVKGRFTISRDNAKNSLYLQMNSLRAEDTAVYYCARLWGAMDYWGQGTLVTVSS
# VL: DIQMTQSPSSLSASVGDRVTITCRASQGLTNDLHWYQQKPGKAPKRLIYYASQSISGVPSRFSGSGSGTEFTLTISSLQPEDFATYYCQQSNSWPFTFGQGTKLEIK
# Molecular target: T2, human ILT11 expressed on CHO-K1 cells (human, UniProt A6NI73 42-299)
# T2 construct: whole, on cells
# T2 sequence (A6NI73 42-299): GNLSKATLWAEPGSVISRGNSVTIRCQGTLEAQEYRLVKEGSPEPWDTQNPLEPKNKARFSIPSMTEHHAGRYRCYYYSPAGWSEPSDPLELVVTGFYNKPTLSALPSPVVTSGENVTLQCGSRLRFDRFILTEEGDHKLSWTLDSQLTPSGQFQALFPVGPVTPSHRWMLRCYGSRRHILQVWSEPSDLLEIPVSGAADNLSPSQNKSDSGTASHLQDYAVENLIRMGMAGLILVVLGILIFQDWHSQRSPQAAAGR
# Assay: cell-based ELISA on CHO-K1 cells expressing human ILT11, HRP anti-mouse IgG, OD 450-650 nm
# Procedure: (§1) Mouse anti-human ILT3 antibodies were tested for binding to human ILT3, and cross-reactivity to Rhesus monkey ILT3, human ILT5, human ILT7, human ILT8, and human ILT11 expressing CHO-K1 cells using a cell-based ELISA format. CHO-K1 cells were plated in 96-well tissue-culture plates in 50 μL of DMEM/F12, 10% BCS and gentamycin (CHO-K1 media). Cells were plated at either 2×10⁴ cells/well two days prior to the assay or 4×10⁴ cells/well one day prior to the assay. Media was removed from the wells prior to adding the test samples. Purified antibody was serially-diluted in CHO-K1 media and added to the CHO-K1 plates. The samples were incubated at room temperature for 30-60 minutes and plates were washed three times with PBS/05% Tween-20 using the cell wash program on the Biotek EL405x Select CW plate washer. Binding was detected using an HRP-conjugated goat anti-mouse IgG (Southern Biotech cat #1031-05) secondary antibody added at a 1:2000 dilution in CHO-K1 media and incubated at room temperature for 30-60 minutes. Assay plates were washed as above and developed with TMB and stopped with TMB stop solution (KPL cat #50-85-06). […] Mouse IgG1 (MIgG1) served as a control.
row,binding result,Binder
1,no binding (tested: 10000 ng/ml),B1

# Molecular target: T3, human ILT3 expressed on cells (human, UniProt Q8NHJ6 22-448)
# T3 construct: whole, on cells; also called huILT3; LILRB4
# Assay: cELISA, CHO human ILT3 cells
# Procedure: (§2) Mouse anti-human ILT3 antibodies were tested for binding to human ILT3, and cross-reactivity to Rhesus monkey ILT3, human ILT5, human ILT7, human ILT8, and human ILT11 expressing CHO-K1 cells using a cell-based ELISA format. CHO-K1 cells were plated in 96-well tissue-culture plates in 50 μL of DMEM/F12, 10% BCS and gentamycin (CHO-K1 media). Cells were plated at either 2×10⁴ cells/well two days prior to the assay or 4×10⁴ cells/well one day prior to the assay. Media was removed from the wells prior to adding the test samples. Purified antibody was serially-diluted in CHO-K1 media and added to the CHO-K1 plates. The samples were incubated at room temperature for 30-60 minutes and plates were washed three times with PBS/05% Tween-20 using the cell wash program on the Biotek EL405x Select CW plate washer. Binding was detected using an HRP-conjugated goat anti-mouse IgG (Southern Biotech cat #1031-05) secondary antibody added at a 1:2000 dilution in CHO-K1 media and incubated at room temperature for 30-60 minutes. Assay plates were washed as above and developed with TMB and stopped with TMB stop solution (KPL cat #50-85-06). The absorbance at 450 nm—620 nm was determined. Mouse IgG1 (MIgG1) served as a control.
row,EC50 [µg/mL],Binder
1,0.0214,B2
2,0.002,B3
3,0.0649,B4
4,0.0077,B5
5,0.0392,B6
6,0.0155,B1
7,0.139,B7

# Molecular target: T4, human ILT7 expressed on CHO-K1 cells (human, UniProt P59901 24-499)
# T4 construct: whole, on cells
# T4 sequence (P59901 24-499): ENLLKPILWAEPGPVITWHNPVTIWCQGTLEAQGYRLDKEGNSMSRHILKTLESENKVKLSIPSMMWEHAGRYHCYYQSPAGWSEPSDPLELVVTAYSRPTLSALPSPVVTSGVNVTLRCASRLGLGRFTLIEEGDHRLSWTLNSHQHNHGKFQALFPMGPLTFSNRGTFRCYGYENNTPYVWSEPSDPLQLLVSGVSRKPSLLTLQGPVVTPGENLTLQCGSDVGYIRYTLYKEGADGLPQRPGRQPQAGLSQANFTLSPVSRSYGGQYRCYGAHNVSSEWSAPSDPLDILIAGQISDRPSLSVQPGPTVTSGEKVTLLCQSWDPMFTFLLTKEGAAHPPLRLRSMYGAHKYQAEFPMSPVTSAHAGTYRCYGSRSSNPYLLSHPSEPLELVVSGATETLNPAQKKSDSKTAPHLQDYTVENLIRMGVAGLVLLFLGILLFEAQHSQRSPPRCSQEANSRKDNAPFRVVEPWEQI
# Assay: cell-based ELISA on CHO-K1 cells expressing human ILT7, HRP anti-mouse IgG, OD 450-650 nm
# Procedure: as §1
row,binding result,Binder
1,no binding (tested: 10000 ng/ml),B1

# Molecular target: T5, human ILT5 expressed on CHO-K1 cells (human, UniProt O75022 24-631)
# T5 construct: whole, on cells; also called CHO-ILT5
# T5 sequence (O75022 24-631): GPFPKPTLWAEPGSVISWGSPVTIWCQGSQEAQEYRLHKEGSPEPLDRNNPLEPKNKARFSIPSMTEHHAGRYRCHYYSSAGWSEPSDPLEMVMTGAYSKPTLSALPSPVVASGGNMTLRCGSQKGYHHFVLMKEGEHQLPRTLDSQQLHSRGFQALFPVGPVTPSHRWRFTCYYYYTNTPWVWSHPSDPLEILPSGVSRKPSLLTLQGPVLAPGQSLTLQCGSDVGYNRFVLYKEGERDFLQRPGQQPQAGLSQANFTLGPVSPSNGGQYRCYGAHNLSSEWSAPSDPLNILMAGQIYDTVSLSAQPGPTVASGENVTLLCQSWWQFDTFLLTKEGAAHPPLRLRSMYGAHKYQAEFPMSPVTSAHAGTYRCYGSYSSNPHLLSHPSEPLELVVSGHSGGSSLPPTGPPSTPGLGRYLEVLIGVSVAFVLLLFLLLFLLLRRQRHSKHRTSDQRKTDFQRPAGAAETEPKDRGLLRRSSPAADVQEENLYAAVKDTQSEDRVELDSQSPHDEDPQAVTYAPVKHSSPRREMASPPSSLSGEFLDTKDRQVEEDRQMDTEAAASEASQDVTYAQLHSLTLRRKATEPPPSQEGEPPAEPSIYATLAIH
# Assay: cell-based ELISA on CHO-K1 cells expressing human ILT5, HRP anti-mouse IgG, OD 450-650 nm
# Procedure: as §1
row,binding result,Binder
1,no binding (tested: 10000 ng/ml),B1

# Molecular target: T6, Rhesus monkey ILT3 expressed on CHO-K1 cells (rhesus monkey (Macaca mulatta))
# T6 construct: whole, on cells; also called rhILT3; CHO-rhesus ILT3
# Assay: cELISA, CHO rhesus ILT3 cells
row,EC50 [µg/mL],Binder
1,21.3,B2
2,18,B3
3,9.48,B5
4,0.091,B8
5,23.2,B1

# Molecular target: T6, Rhesus monkey ILT3 expressed on CHO-K1 …
# Assay: cell-based ELISA on CHO-K1 cells expressing Rhesus monkey ILT3, HRP anti-mouse IgG, OD 450-650 nm
row,EC50 (read off the curve) [ng/mL],Binder
1,~50,B9

# Molecular target: T6, Rhesus monkey ILT3 expressed on CHO-K1 …
# Assay: cELISA, CHO rhesus ILT3 cells
# Remark: another data set of the same source
# Procedure: as §2
row,EC50 [µg/mL],Binder
1,0.0231,B2
2,0.018,B3
3,0.0679,B4
4,0.0095,B5
5,0.0232,B1

# Molecular target: T3, human ILT3 expressed on cells
# Assay: cell-based or functional assay
row,TNFα secretion by human monocyte-derived dendritic cells polarized with IL-10 and LPS; concentration giving half of the maximal increase (EC50) [ng/mL],Binder
1,~1.9,B8

# Molecular target: T7, Human ILT3 (LILRB4) extracellular domain with C-terminal His Tag (human, UniProt Q8NHJ6 22-259)
# T7 construct: the claims count residues 1-238 as the extracellular domain; also called human ILT3-His; ILT3_H
# Assay: SPR (Biacore), human ILT3-His
row,Kd [nM],Binder
1,0.021,B2
2,6.99,B3
3,0.096,B4
4,0.012,B5
5,0.46,B8
6,0.658,B1

# Molecular target: T3, human ILT3 expressed on cells
# Assay: cELISA, CHO human ILT3 cells
# Remark: another data set of the same source
row,EC50 [µg/mL],Binder
1,21.4,B2
2,1.99,B3
3,7.72,B5
4,39.2,B6
5,0.064,B8
6,0.0155,B1
7,139,B7

# Molecular target: T7, Human ILT3 (LILRB4) extracellular …
# Assay: SPR (Biacore), human ILT3-His
# Remark: another data set of the same source
row,Kd [nM],Binder
1,0.0205,B2
2,6.99,B3
3,0.0957,B4
4,0.0118,B5
5,16.9,B6
6,0.658,B1
7,0.592,B7

# Molecular target: T8, human ILT8 expressed on CHO-K1 cells (human, UniProt Q6PI73 24-481)
# T8 construct: whole, on cells; also called CHO-ILT8
# T8 sequence (Q6PI73 24-481): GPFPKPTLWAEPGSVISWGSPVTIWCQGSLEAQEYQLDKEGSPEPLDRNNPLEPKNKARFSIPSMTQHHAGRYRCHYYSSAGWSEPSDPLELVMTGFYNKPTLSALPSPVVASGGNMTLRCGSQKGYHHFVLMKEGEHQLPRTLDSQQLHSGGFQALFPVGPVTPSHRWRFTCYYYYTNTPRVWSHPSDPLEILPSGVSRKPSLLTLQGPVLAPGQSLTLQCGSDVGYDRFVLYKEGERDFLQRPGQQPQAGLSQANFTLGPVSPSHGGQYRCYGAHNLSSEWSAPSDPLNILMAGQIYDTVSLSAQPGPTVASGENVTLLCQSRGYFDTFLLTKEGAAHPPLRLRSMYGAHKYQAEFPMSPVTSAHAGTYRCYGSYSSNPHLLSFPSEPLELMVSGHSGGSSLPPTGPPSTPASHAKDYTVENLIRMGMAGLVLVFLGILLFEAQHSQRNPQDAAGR
# Assay: cell-based ELISA on CHO-K1 cells expressing human ILT8, HRP anti-mouse IgG, OD 450-650 nm
# Procedure: as §1
binding result,EC50 (read off the curve) [ng/mL],Binder
no binding (tested: 10000 ng/ml),–,B1
–,~20,B9

# Molecular target: T1, rhesus ILT3-His tagged recombinant …
# Assay: SPR (Biacore), rhesus ILT3-His
# In short: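 Antibodies captured on anti-human Fc surface, with human or rhesus ILT3-His as analyte in HBS-EP+ running buffer; reference flow cell subtracted, regeneration with 3M MgCl₂. ka and kd obtained from 1:1 Langmuir fits, KD = kd/ka.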
row,Kd [nM],Binder
1,0.126,B2
2,18.2,B3
3,0.259,B4
4,0.145,B5
5,9.5,B8
6,24.4,B1

# Molecular target: T1, rhesus ILT3-His tagged recombinant …
# Assay: SPR (Biacore), rhesus ILT3-His
# Remark: another data set of the same source
Kd [nM],binding result,Binder
0.126,–,B2
18,–,B3
0.259,–,B4
0.15,–,B5
–,no binding,B6
24.4,–,B1
–,no binding,B7

# Molecular target: T3, human ILT3 expressed on cells
# Assay: cell-based ELISA on CHO-K1 cells expressing human ILT3, HRP anti-mouse IgG, OD 450-650 nm
row,EC50 (read off the curve) [ng/mL],Binder
1,~20,B9
